Drawing on publication PMC3764422, “A model of yeast glycolysis based on a consistent kinetic characterisation of all its enzymes” (Febs Letters, 2013), this text covers Km and kcat for eleven proteins.

In general, kcat refers to the maximal rate divided by the concentration of active sites.

Holding throughout (experiment): purified protein
Common to all, as to type: biochemical, Saccharomyces cerevisiae
What all share (conditions): standardised reaction buffer, 30 °C

Substrate in series [1]: O=C[C@H](O)COP(=O)(O)O
Substrate in series [2]: O=C(O)[C@H](O)COP(=O)(O)O
Substrate in series [3]: O=C(O)[C@@H](CO)OP(=O)(O)O
Substrate in series [4]: CC(=O)C(=O)O
Substrate in series [5]: Nc1ncnc2c1ncn2[C@@H]1O[C@H](COP(=O)(O)OP(=O)(O)OP(=O)(O)O)[C@@H](O)[C@H]1O
Where [6] appears, read: direction with ATP as co-substrate.

B1: Tdh3p (Saccharomyces cerevisiae S288C) (protein)
chain: VRVAINGFGRIGRLVMRIALSRPNVEVVALNDPFITNDYAAYMFKYDSTHGRYAGEVSHDDKHIIVDGKKIATYQERDPANLPWGSSNVDIAIDSTGVFKELDTAQKHIDAGAKKVVITAPSSTAPMFVMGVNEEKYTSDLKIVSNASCTTNCLAPLAKVINDAFGIEEGLMTTVHSLTATQKTVDGPSHKDWRGGRTASGNIIPSSTGAAKAVGKVLPELQGKLTGMAFRVPTVDVSVVDLTVKLNKETTYDEIKKVVKAAAEGKLKGVLGYTEDAVVSSDFLGDSHSSIFDASAGIQLSPKFVKLVSWYDNEYGYSTRVVDLVEHVAKA
notes: tagged full-length ORF, expressed in and purified from S. cerevisiae
Consider B1, for which, in “purified protein [1]”, the Km was 0.423 (SEM 9.2%) mM and the turnover number (kcat) stood at 18.2 s⁻¹.

B2: Tdh2p (Saccharomyces cerevisiae S288C) (protein)
chain: VRVAINGFGRIGRLVMRIALQRKNVEVVALNDPFISNDYSAYMFKYDSTHGRYAGEVSHDDKHIIVDGHKIATFQERDPANLPWASLNIDIAIDSTGVFKELDTAQKHIDAGAKKVVITAPSSTAPMFVMGVNEEKYTSDLKIVSNASCTTNCLAPLAKVINDAFGIEEGLMTTVHSMTATQKTVDGPSHKDWRGGRTASGNIIPSSTGAAKAVGKVLPELQGKLTGMAFRVPTVDVSVVDLTVKLNKETTYDEIKKVVKAAAEGKLKGVLGYTEDAVVSSDFLGDSNSSIFDAAAGIQLSPKFVKLVSWYDNEYGYSTRVVDLVEHVAKA
notes: as for B1
For the protein B2, in the series “purified protein [1]”, the Km is recorded as 0.77 mM and the catalytic constant (kcat) was determined as 8.63 s⁻¹.

B3: Pgk1p (Saccharomyces cerevisiae S288C) (protein)
chain: SLSSKLSVQDLDLKDKRVFIRVDFNVPLDGKKITSNQRIVAALPTIKYVLEHHPRYVVLASHLGRPNGERNEKYSLAPVAKELQSLLGKDVTFLNDCVGPEVEAAVKASAPGSVILLENLRYHIEEEGSRKVDGQKVKASKEDVQKFRHELSSLADVYINDAFGTAHRAHSSMVGFDLPQRAAGFLLEKELKYFGKALENPTRPFLAILGGAKVADKIQLIDNLLDKVDSIIIGGGMAFTFKKVLENTEIGDSIFDKAGAEIVPKLMEKAKAKGVEVVLPVDFIIADAFSADANTKTVTDKEGIPAGWQGLDNGPESRKLFAATVAKAKTIVWNGPPGVFEFEKFAAGTKALLDEVVKSSAAGNTVIIGGGDTATVAKKYGVTDKISHVSTGGGASLELLEGKELPGVAFLSEKK
notes: as for B1
Consider B3, for which, in the series “purified protein [2]” (setting [6]), the Km turned out to be 4580 µM and the catalytic constant (kcat) turned out to be 58.6 s⁻¹.

B4: Eno2p (Saccharomyces cerevisiae S288C) (protein)
chain: MAVSKVYARSVYDSRGNPTVEVELTTEKGVFRSIVPSGASTGVHEALEMRDEDKSKWMGKGVMNAVNNVNNVIAAAFVKANLDVKDQKAVDDFLLSLDGTANKSKLGANAILGVSMAAARAAAAEKNVPLYQHLADLSKSKTSPYVLPVPFLNVLNGGSHAGGALALQEFMIAPTGAKTFAEAMRIGSEVYHNLKSLTKKRYGASAGNVGDEGGVAPNIQTAEEALDLIVDAIKAAGHDGKVKIGLDCASSEFFKDGKYDLDFKNPESDKSKWLTGVELADMYHSLMKRYPIVSIEDPFAEDDWEAWSHFFKTAGIQIVADDLTVTNPARIATAIEKKAADALLLKVNQIGTLSESIKAAQDSFAANWGVMVSHRSGETEDTFIADLVVGLRTGQIKTGAPARSERLAKLNQLLRIEEELGDKAVYAGENFHHGDKL
notes: N-terminally tagged full-length ORF, expressed in and purified from S. cerevisiae, assayed fresh
As to B4, in “purified protein [3]”, the Km stood at 0.104 mM and the kcat is 19.9 s⁻¹.

B5: Tdh1p (Saccharomyces cerevisiae S288C) (protein)
chain: MIRIAINGFGRIGRLVLRLALQRKDIEVVAVNDPFISNDYAAYMVKYDSTHGRYKGTVSHDDKHIIIDGVKIATYQERDPANLPWGSLKIDVAVDSTGVFKELDTAQKHIDAGAKKVVITAPSSSAPMFVVGVNHTKYTPDKKIVSNASCTTNCLAPLAKVINDAFGIEEGLMTTVHSMTATQKTVDGPSHKDWRGGRTASGNIIPSSTGAAKAVGKVLPELQGKLTGMAFRVPTVDVSVVDLTVKLEKEATYDQIKKAVKAAAEGPMKGVLGYTEDAVVSSDFLGDTHASIFDASAGIQLSPKFVKLISWYDNEYGYSARVVDLIEYVAKA
notes: as for B1
B5: in the series “purified protein [1]”, the Km is 0.495 (SEM 7.5%) mM and the turnover number (kcat) is 19.1 s⁻¹.

B6: Gpm1p (Saccharomyces cerevisiae S288C) (protein)
chain: PKLVLVRHGQSEWNEKNLFTGWVDVKLSAKGQQEAARAGELLKEKKVYPDVLYTSKLSRAIQTANIALEKADRLWIPVNRSWRLNERHYGDLQGKDKAETLKKFGEEKFNTYRRSFDVPPPPIDASSPFSQKGDERYKYVDPNVLPETESLALVIDRLLPYWQDVIAKDLLSGKTVMIAAHGNSLRGLVKHLEGISDADIAKLNIPTGIPLVFELDENLKPSKPSYYLDPEAAAAGAAAVANQGKK
notes: as for B1
Turning to B6, in the series “purified protein [3]” (reverse reaction (P2G to P3G)), the Km is on record as 1.41 mM and the kcat amounted to 400 s⁻¹.

B7: Pdc5p (Saccharomyces cerevisiae S288C) (protein)
chain: MSEITLGKYLFERLSQVNCNTVFGLPGDFNLSLLDKLYEVKGMRWAGNANELNAAYAADGYARIKGMSCIITTFGVGELSALNGIAGSYAEHVGVLHVVGVPSISSQAKQLLLHHTLGNGDFTVFHRMSANISETTAMITDIANAPAEIDRCIRTTYTTQRPVYLGLPANLVDLNVPAKLLETPIDLSLKPNDAEAEAEVVRTVVELIKDAKNPVILADACASRHDVKAETKKLMDLTQFPVYVTPMGKGAIDEQHPRYGGVYVGTLSRPEVKKAVESADLILSIGALLSDFNTGSFSYSYKTKNIVEFHSDHIKIRNATFPGVQMKFALQKLLDAIPEVVKDYKPVAVPARVPITKSTPANTPMKQEWMWNHLGNFLREGDIVIAETGTSAFGINQTTFPTDVYAIVQVLWGSIGFTVGALLGATMAAEELDPKKRVILFIGDGSLQLTVQEISTMIRWGLKPYIFVLNNNGYTIEKLIHGPHAEYNEIQGWDHLALLPTFGARNYETHRVATTGEWEKLTQDKDFQDNSKIRMIEVMLPVFDAPQNLVKQAQLTAATNAKQ
notes: tagged full-length ORF, expressed in and purified from S. cerevisiae, assayed freshly purified
With B7, in “purified protein [4]”, the Km is reported as 7.08 (SEM 5.7%) mM and the turnover number (kcat) was determined as 10.3 s⁻¹.

B8: Pdc1p (Saccharomyces cerevisiae S288C) (protein)
chain: SEITLGKYLFERLKQVNVNTVFGLPGDFNLSLLDKIYEVEGMRWAGNANELNAAYAADGYARIKGMSCIITTFGVGELSALNGIAGSYAEHVGVLHVVGVPSISAQAKQLLLHHTLGNGDFTVFHRMSANISETTAMITDIATAPAEIDRCIRTTYVTQRPVYLGLPANLVDLNVPAKLLQTPIDMSLKPNDAESEKEVIDTILALVKDAKNPVILADACCSRHDVKAETKKLIDLTQFPAFVTPMGKGSIDEQHPRYGGVYVGTLSKPEVKEAVESADLILSVGALLSDFNTGSFSYSYKTKNIVEFHSDHMKIRNATFPGVQMKFVLQKLLTTIADAAKGYKPVAVPARTPANAAVPASTPLKQEWMWNQLGNFLQEGDVVIAETGTSAFGINQTTFPNNTYGISQVLWGSIGFTTGATLGAAFAAEEIDPKKRVILFIGDGSLQLTVQEISTMIRWGLKPYLFVLNNDGYTIEKLIHGPKAQYNEIQGWDHLSLLPTFGAKDYETHRVATTGEWDKLTQDKSFNDNSKIRMIEIMLPVFDAPQNLVEQAKLTAATNAKQ
notes: as for B7
With B8, in “purified protein [4]”, the Km is reported as 8.5 (SEM 10%) mM and the turnover number (kcat) was 12.1 s⁻¹.

B9: Pdc6p (Saccharomyces cerevisiae S288C) (protein)
chain: SEITLGKYLFERLKQVNVNTIFGLPGDFNLSLLDKIYEVDGLRWAGNANELNAAYAADGYARIKGLSVLVTTFGVGELSALNGIAGSYAEHVGVLHVVGVPSISAQAKQLLLHHTLGNGDFTVFHRMSANISETTSMITDIATAPSEIDRLIRTTFITQRPSYLGLPANLVDLKVPGSLLEKPIDLSLKPNDPEAEKEVIDTVLELIQNSKNPVILSDACASRHNVKKETQKLIDLTQFPAFVTPLGKGSIDEQHPRYGGVYVGTLSKQDVKQAVESADLILSVGALLSDFNTGSFSYSYKTKNVVEFHSDYVKVKNATFLGVQMKFALQNLLKVIPDVVKGYKSVPVPTKTPANKGVPASTPLKQEWLWNELSKFLQEGDVIISETGTSAFGINQTIFPKDAYGISQVLWGSIGFTTGATLGAAFAAEEIDPNKRVILFIGDGSLQLTVQEISTMIRWGLKPYLFVLNNDGYTIEKLIHGPHAEYNEIQTWDHLALLPAFGAKKYENHKIATTGEWDALTTDSEFQKNSVIRLIELKLPVFDAPESLIKQAQLTAATNAKQ
notes: as for B7
For the protein B9, in the series “purified protein [4]”, the Km came to 2.92 mM and the turnover number (kcat) was 9.21 s⁻¹.

B10: Eno1p (Saccharomyces cerevisiae S288C) (protein)
chain: AVSKVYARSVYDSRGNPTVEVELTTEKGVFRSIVPSGASTGVHEALEMRDGDKSKWMGKGVLHAVKNVNDVIAPAFVKANIDVKDQKAVDDFLISLDGTANKSKLGANAILGVSLAASRAAAAEKNVPLYKHLADLSKSKTSPYVLPVPFLNVLNGGSHAGGALALQEFMIAPTGAKTFAEALRIGSEVYHNLKSLTKKRYGASAGNVGDEGGVAPNIQTAEEALDLIVDAIKAAGHDGKIKIGLDCASSEFFKDGKYDLDFKNPNSDKSKWLTGPQLADLYHSLMKRYPIVSIEDPFAEDDWEAWSHFFKTAGIQIVADDLTVTNPKRIATAIEKKAADALLLKVNQIGTLSESIKAAQDSFAAGWGVMVSHRSGETEDTFIADLVVGLRTGQIKTGAPARSERLAKLNQLLRIEEELGDNAVFAGENFHHGDKL
notes: tagged full-length ORF, expressed in and purified from S. cerevisiae, assayed immediately after purification
Turning to B10, in the series “purified protein [3]”, the Km is given as 0.043 (SEM 10%) mM. Moreover, the kcat was 7.6 s⁻¹ in the series “purified protein [3]” and 5.07 s⁻¹ in the series “purified protein [2]” (product PEP).

B11: Glk1p (Saccharomyces cerevisiae S288C) (protein)
chain: SFDDLHKATERAVIQAVDQICDDFEVTPEKLDELTAYFIEQMEKGLAPPKEGHTLASDKGLPMIPAFVTGSPNGTERGVLLAADLGGTNFRICSVNLHGDHTFSMEQMKSKIPDDLLDDENVTSDDLFGFLARRTLAFMKKYHPDELAKGKDAKPMKLGFTFSYPVDQTSLNSGTLIRWTKGFRIADTVGKDVVQLYQEQLSAQGMPMIKVVALTNDTVGTYLSHCYTSDNTDSMTSGEISEPVIGCIFGTGTNGCYMEEINKITKLPQELRDKLIKEGKTHMIINVEWGSFDNELKHLPTTKYDVVIDQKLSTNPGFHLFEKRVSGMFLGEVLRNILVDLHSQGLLLQQYRSKEQLPRHLTTPFQLSSEVLSHIEIDDSTGLRETELSLLQSLRLPTTPTERVQIQKLVRAISRRSAYLAAVPLAAILIKTNALNKRYHGEVEIGCDGSVVEYYPGFRSMLRHALALSPLGAEGERKVHLKIAKDGSGVGAALCALVA
notes: tagged full-length ORF (mostly C-terminal tag, yeast ORF/GST/TAP collections), expressed in and purified from S. cerevisiae
Regarding B11, in the series “purified protein [5]”, the Km was found to be 865 µM and the kcat turned out to be 0.0721 s⁻¹.
